Source: PMC8886539
Values joined by “and” are separate entries in the source; they are usually repeats but may differ in a detail not shown here. Equal values may be shown once.

Assays:
[1] = target: wt Tag_(131-627) (simian virus 40); assay: atomic force microscopy (volume analysis); 500 nM protein (or 250 nM each of M1 and M2) with gapped DNA substrate (48 nt ssDNA at the centre of ~500 bp, 3-5 nM) in 25 mM HEPES-NaOH pH 7.5, 25 mM sodium acetate, 10 mM magnesium acetate, 1 mM ATP, 1 h at room temperature; cross-linked with 0.1% glutaraldehyde; volumes of complexes on the ssDNA stretch
[2] = target: DNA polymerase α-primase complex (human) (UniProt P09884)
Chain of UniProt P09884 (P09884 whole entry, chain 1 of 4): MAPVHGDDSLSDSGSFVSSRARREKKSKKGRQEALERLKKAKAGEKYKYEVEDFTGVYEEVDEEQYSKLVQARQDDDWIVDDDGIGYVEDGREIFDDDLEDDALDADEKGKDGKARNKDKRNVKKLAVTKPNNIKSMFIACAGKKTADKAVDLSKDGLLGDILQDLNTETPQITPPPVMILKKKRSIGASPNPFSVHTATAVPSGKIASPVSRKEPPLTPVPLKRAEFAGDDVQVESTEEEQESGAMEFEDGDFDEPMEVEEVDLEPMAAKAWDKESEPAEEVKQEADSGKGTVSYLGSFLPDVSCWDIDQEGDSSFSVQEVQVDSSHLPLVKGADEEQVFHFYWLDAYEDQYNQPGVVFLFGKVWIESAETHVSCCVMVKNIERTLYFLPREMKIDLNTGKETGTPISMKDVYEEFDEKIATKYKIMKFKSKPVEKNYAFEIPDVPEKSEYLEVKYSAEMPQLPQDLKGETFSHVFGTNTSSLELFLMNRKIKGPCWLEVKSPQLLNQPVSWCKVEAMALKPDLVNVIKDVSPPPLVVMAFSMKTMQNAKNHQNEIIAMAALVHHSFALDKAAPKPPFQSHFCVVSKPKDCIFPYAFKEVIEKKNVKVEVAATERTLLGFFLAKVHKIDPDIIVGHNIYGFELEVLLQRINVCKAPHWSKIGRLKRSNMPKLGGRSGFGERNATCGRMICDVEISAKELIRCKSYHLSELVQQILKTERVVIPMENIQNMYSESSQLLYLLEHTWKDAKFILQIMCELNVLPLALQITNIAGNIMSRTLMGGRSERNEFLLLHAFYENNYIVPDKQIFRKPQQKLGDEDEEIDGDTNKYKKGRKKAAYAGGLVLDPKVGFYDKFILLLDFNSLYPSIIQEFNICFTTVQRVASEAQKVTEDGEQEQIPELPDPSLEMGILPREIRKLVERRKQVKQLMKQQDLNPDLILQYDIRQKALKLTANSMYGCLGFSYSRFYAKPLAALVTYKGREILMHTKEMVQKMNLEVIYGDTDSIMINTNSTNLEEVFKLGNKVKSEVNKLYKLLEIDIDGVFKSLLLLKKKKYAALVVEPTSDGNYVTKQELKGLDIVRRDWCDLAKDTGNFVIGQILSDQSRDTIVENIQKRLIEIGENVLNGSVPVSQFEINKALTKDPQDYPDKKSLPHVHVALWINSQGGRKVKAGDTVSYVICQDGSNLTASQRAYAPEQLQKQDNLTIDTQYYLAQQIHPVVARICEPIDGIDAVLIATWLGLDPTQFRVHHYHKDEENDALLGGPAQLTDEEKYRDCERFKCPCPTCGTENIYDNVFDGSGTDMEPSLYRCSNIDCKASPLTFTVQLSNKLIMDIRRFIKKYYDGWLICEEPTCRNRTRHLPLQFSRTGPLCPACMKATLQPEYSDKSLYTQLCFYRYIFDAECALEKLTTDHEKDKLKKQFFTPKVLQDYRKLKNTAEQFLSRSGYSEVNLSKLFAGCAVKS
Chain of UniProt P09884 (Q14181 whole entry, chain 2 of 4, further chain): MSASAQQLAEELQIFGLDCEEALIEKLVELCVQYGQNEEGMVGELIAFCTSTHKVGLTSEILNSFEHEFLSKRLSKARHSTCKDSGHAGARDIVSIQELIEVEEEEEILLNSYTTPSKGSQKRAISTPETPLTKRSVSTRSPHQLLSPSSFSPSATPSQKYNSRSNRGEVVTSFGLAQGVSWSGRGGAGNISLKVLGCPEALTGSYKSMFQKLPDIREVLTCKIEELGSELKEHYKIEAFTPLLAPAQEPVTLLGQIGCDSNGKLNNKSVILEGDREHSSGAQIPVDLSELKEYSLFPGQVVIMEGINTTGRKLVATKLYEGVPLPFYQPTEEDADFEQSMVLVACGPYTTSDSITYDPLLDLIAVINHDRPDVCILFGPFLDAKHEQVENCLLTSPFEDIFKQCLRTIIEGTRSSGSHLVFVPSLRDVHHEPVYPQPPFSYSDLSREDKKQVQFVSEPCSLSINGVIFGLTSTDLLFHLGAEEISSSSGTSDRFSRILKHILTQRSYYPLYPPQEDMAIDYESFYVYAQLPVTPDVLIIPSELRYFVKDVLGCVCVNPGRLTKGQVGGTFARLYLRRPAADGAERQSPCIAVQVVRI
Chain of UniProt P09884 (P49643 whole entry, chain 3 of 4, further chain): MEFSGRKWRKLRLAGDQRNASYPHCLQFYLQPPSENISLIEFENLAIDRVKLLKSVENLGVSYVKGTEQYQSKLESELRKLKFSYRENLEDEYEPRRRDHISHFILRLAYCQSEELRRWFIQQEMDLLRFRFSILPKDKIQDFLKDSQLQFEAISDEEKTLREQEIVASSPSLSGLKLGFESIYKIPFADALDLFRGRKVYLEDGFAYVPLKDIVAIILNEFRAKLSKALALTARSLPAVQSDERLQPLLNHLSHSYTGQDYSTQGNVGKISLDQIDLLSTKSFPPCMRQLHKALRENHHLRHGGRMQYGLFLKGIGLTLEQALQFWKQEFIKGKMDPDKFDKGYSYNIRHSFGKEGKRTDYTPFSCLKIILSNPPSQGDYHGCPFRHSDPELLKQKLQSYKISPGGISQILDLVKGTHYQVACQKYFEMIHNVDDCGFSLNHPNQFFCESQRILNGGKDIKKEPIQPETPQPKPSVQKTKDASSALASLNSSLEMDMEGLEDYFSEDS
Chain of UniProt P09884 (P49642 whole entry, chain 4 of 4, further chain): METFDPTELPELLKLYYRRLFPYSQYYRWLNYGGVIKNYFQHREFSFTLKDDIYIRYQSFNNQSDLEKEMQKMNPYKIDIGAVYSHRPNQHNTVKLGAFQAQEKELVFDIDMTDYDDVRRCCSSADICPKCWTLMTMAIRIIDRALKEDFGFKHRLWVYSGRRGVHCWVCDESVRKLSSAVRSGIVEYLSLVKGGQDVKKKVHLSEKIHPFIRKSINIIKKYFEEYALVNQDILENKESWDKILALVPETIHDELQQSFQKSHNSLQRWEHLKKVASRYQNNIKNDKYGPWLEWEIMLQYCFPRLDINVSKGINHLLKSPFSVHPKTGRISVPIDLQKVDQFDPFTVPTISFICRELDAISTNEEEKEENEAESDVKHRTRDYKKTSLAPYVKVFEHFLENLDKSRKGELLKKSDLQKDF

[3] = target: wt Tag_(131-627) (simian virus 40); assay: SEC; Superdex 200 16/600 column; proteins in solution; data not shown
[4] = target: full-length SV40 T antigen Tag_(1-708) (simian virus 40) (UniProt P03070); assay: atomic force microscopy (volume analysis); 500 nM protein (or 250 nM each of M1 and M2) with gapped DNA substrate (48 nt ssDNA at the centre of ~500 bp, 3-5 nM) in 25 mM HEPES-NaOH pH 7.5, 25 mM sodium acetate, 10 mM magnesium acetate, 1 mM ATP, 1 h at room temperature; cross-linked with 0.1% glutaraldehyde; volumes of complexes on the ssDNA stretch
[5] = target: DNA polymerase α-primase complex (human) (UniProt P09884); remark: listed apart in the source

wt Tag_(131-627) (domain or fragment)
stoichiometry N [1]: 6 and 12
primase-initiated DNA synthesis (dNMP incorporation) by Pol-prim on ΦΧ174 ssDNA, 0.3 and 0.6 µg Tag variant, inhibition against Pol-prim alone [2]: 96 % inhibition
stoichiometry N [3]: 6

Tag_(131-627)(V350E/P417D) (domain or fragment)
primase-initiated DNA synthesis (dNMP incorporation) by Pol-prim on ΦΧ174 ssDNA, 0.3 and 0.6 µg Tag variant, reduction against Pol-prim alone [2]: 65 % reduction

full-length SV40 T antigen Tag_(1-708) (from UniProt P03070 1-708) (natural protein)
stoichiometry N [4]: 2
primase-initiated DNA synthesis (dNMP incorporation) by Pol-prim on RPA-bound ssDNA (0.5 µg RPA), 0.3 and 0.6 µg Tag, stimulation against RPA without Tag [5]: 11.5 fold

Tag_(131-627)(L286D/R567E) (domain or fragment)
primase-initiated DNA synthesis (dNMP incorporation) by Pol-prim on ΦΧ174 ssDNA, 0.3 and 0.6 µg Tag variant, stimulation against Pol-prim alone [2]: 4 fold
primase-initiated DNA synthesis (dNMP incorporation) by Pol-prim on RPA-bound ssDNA (0.5 µg RPA), 0.3 and 0.6 µg Tag variant, stimulation against RPA without Tag [5]: 10.4 fold
